Test results from PMC10851751, “Characterization and insight mechanism of an acid-adapted β-Glucosidase from Lactobacillus paracasei and its application in bioconversion of glycosides” (Frontiers in Bioengineering and Biotechnology, 2024).

Columns and labels:
[1] = substrate: OCc1ccccc1O[C@@H]1O[C@H](CO)[C@@H](O)[C@H](O)[C@H]1O; experiment: HPLC of glucose or aglycone, Michaelis-Menten fit; format: biochemical, Lacticaseibacillus paracasei; details: pH 5.5, 30°C, 0.5-15 mM substrate
Excerpt: (§1) HPLC of glucose or aglycone, Michaelis-Menten fit on LpBgla

[2] = substrate: O=c1ccc2cc(O[C@@H]3O[C@H](CO)[C@@H](O)[C@H](O)[C@H]3O)c(O)cc2o1; experiment: HPLC of glucose or aglycone, Michaelis-Menten fit; format: biochemical, Lacticaseibacillus paracasei; details: pH 5.5, 30°C, 0.5-15 mM substrate
Excerpt: as §1

[3] = substrate: OC[C@H]1O[C@@H](Oc2ccc(O)cc2)[C@H](O)[C@@H](O)[C@@H]1O; experiment: HPLC of glucose or aglycone, Michaelis-Menten fit; format: biochemical, Lacticaseibacillus paracasei; details: pH 5.5, 30°C, 0.5-15 mM substrate
Excerpt: as §1

[4] = substrate: OC[C@H]1O[C@@H](Oc2cc(O)cc(/C=C/c3ccc(O)cc3)c2)[C@H](O)[C@@H](O)[C@@H]1O; experiment: HPLC of glucose or aglycone, Michaelis-Menten fit; format: biochemical, Lacticaseibacillus paracasei; details: pH 5.5, 30°C, 0.5-15 mM substrate
Excerpt: as §1

[5] = substrate: COC(=O)C1=CO[C@@H](O[C@@H]2O[C@H](CO)[C@@H](O)[C@H](O)[C@H]2O)[C@@H]2C(CO)=CC[C@H]12; experiment: HPLC of glucose or aglycone, Michaelis-Menten fit; format: biochemical, Lacticaseibacillus paracasei; details: pH 5.5, 30°C, 0.5-15 mM substrate
Excerpt: as §1

purified protein = substrate: O=[N+]([O-])c1ccc(O[C@@H]2O[C@H](CO)[C@@H](O)[C@H](O)[C@H]2O)cc1; experiment: purified protein; details: pH 5.5, 30°C, 0.5-15 mM substrate, authors note sigmoidal v0 vs [S]

B1: LpBgla (Lacticaseibacillus paracasei ATCC 334) (protein)
chain: MGVVVSNFHLAKITAEEKVKLTSGKDFWTSEHLADKGIPSFRMSDGPHGLRYQALAADHLGINDSVPSTSFPTASASAAAWDPDLIQAMGKAIGLEAQSLGVDMVLGPGVNMKRNPLCGRNFEYFSEDPFLAGKLGAAWINGIQSQGIAACLKHFAANNQENDRLSSDSLVDPTALHEIYLEAFRIAVTESHPEAVMCSYNKINGTYASDNLYLMTQVLRQQFGFGGAVITDWGALNDKVAALNAGTDLEMPGDDHLFDGEALQAYQQGTLKLASLDRAVTKIAEIARKQRPKFQGSREQLLQANGQLAQKIAESAIVLLKNEAALLPLQATDTVAVIGELAKATRFQGAGSSHINASEIVSVLDGLKQKKVSFDYAAGYRLDDQDDSQATAEALALARNHDKVVFVAGLPDNYESEGFDRQNMALPKVQNDLLQAVTAVNPNVIVLLVAGAPVELPWVDQVKAVVNLSLGGERIGAAAANVLTGAVNPSGKLAESYPLKYQDVPSADVYDKKPRSVPYVESTYIGYRYYDKAKVPVAFPFGFGLSYTSFALKNIQLSSDHVTDDQPLTISLQVTNTGQVDGAEVVQVYVQEQQPRPLRPEKSLKAFKKVFVKAGQTVNVALELKAQAFKEWREQTQTWVLPEAQKAIAVGTSVTNIDAVLPVSFTGETFNNFATIPNWYTTLSGKPSVQDFEQLTDQKVPAPHEFVPGEFTRLNTPREMKKHSLLLRLVAWITVKIRTKDYIDKQGPEAKFQQAIVLDTPLIRLAQQASGALKLSMVDRLVAAANHQYVKMIFR
notes: full-length gene (2,388 bp, 796 amino acids), pET28a, His-tagged, E. coli BL21(DE3), Ni-NTA; monomer
[1]
  Km: 2250 ± 10 µM
  kcat: 2970 ± 88 s⁻¹
  kcat/Km: 1.32e+06 M⁻¹ s⁻¹
[2]
  Km: 3610 ± 80 µM
  kcat: 2210 ± 38 s⁻¹
  kcat/Km: 611000 M⁻¹ s⁻¹
[3]
  Km: 1920 ± 30 µM
  kcat: 3570 ± 72 s⁻¹
  kcat/Km: 1.86e+06 M⁻¹ s⁻¹
[4]
  Km: 5710 ± 100 µM
  kcat: 1730 ± 45 s⁻¹
  kcat/Km: 303000 M⁻¹ s⁻¹
[5]
  Km: 2870 ± 50 µM
  kcat: 2520 ± 23 s⁻¹
  kcat/Km: 878000 M⁻¹ s⁻¹
Purified protein
  Km: 1440 ± 80 µM
  kcat: 3982 ± 14 s⁻¹
  kcat/Km: 2.76e+06 M⁻¹ s⁻¹
